Experiment [1] deals with BCR-ABL Y177F (human) (UniProt P11274). Description: co-IP.
Experiment [2] has as its target BCR-ABL with deleted DH-PH domains (human) (UniProt P11274). Description: co-IP.
The target of experiment [3] is BCR-ABL with deleted FABD domain (human) (UniProt P11274). In words: co-IP.
Experiment [4] addresses BCR-ABL with deleted IDR (human) (UniProt P11274). In words: co-IP.
Experiment [5] concerns the target BCR-ABL Y177F (human) (UniProt P11274). Description: native gel or EMSA. In general terms: Mobility shift assays separate free from complexed probe on a gel.
For experiment [6], the target named is kinase-dead BCR-ABL (K271H) (human) (UniProt P11274). In words: native gel or EMSA.
In experiment [7] the target is p190 BCR-ABL (human) (UniProt P11274). In words: proximity ligation.
In experiment [8] the target is BCR-ABL with deleted PH domain (human) (UniProt P11274). In words: co-IP.

As to “p85a-PI3K, transfected (from UniProt P27986 1-724) (natural protein)”, the decrease of binding against BCR-ABL in experiment [1] stood at 50%; in experiment [2], 80%; in experiment [3] it was 40%; in experiment [4], 70%.

Consider “GRB2 of NIH3T3 cells (from UniProt Q60631 1-217) (natural protein)”, for which the percent of GRB2 associated in experiment [5] and in experiment [6] was 30% each time.

B1: V5-tagged SHIP2 (enzyme)
chain: MASACGAPGPGGALGSQAPSWYHRDLSRAAAEELLARAGRDGSFLVRDSESVAGAFALCVLYQKHVHTYRILPDGEDFLAVQTSQGVPVRRFQTLGELIGLYAQPNQGLVCALLLPVEGEREPDPPDDRDASDGEDEKPPLPPRSGSTSISAPTGPSSPLPAPETPTAPAAESAPNGLSTVSHDYLKGSYGLDLEAVRGGASHLPHLTRTLATSCRRLHSEVDKVLSGLEILSKVFDQQSSPMVTRLLQQQNLPQTGEQELESLVLKLSVLKDFLSGIQKKALKALQDMSSTAPPAPQPSTRKAKTIPVQAFEVKLDVTLGDLTKIGKSQKFTLSVDVEGGRLVLLRRQRDSQEDWTTFTHDRIRQLIKSQRVQNKLGVVFEKEKDRTQRKDFIFVSARKREAFCQLLQLMKNKHSKQDEPDMISVFIGTWNMGSVPPPKNVTSWFTSKGLGKTLDEVTVTIPHDIYVFGTQENSVGDREWLDLLRGGLKELTDLDYRPIAMQSLWNIKVAVLVKPEHENRISHVSTSSVKTGIANTLGNKGAVGVSFMFNGTSFGFVNCHLTSGNEKTARRNQNYLDILRLLSLGDRQLNAFDISLRFTHLFWFGDLNYRLDMDIQEILNYISRKEFEPLLRVDQLNLEREKHKVFLRFSEEEISFPPTYRYERGSRDTYAWHKQKPTGVRTNVPSWCDRILWKSYPETHIICNSYGCTDDIVTSDHSPVFGTFEVGVTSQFISKKGLSKTSDQAYIEFESIEAIVKTASRTKFFIEFYSTCLEEYKKSFENDAQSSDNINFLKVQWSSRQLPTLKPILADIEYLQDQHLLLTVKSMDGYESYGECVVALKSMIGSTAQQFLTFLSHRGEETGNIRGSMKVRVPTERLGTRERLYEWISIDKDEAGAKSKAPSVSRGSQEPRSGSRKPAFTEASCPLSRLFEEPEKPPPTGRPPAPPRAAPREEPLTPRLKPEGAPEPEGVAAPPPKNSFNNPAYYVLEGVPHQLLPPEPPSPARAPVPSATKNKVAITVPAPQLGHHRHPRVGEGSSSDEESGGTLPPPDFPPPPLPDSAIFLPPSLDPLPGPVVRGRGGAEARGPPPPKAHPRPPLPPGPSPASTFLGEVASGDDRSCSVLQMAKTLSEVDYAPAGPARSALLPGPLELQPPRGLPSDYGRPLSFPPPRIRESIQEDLAEEAPCLQGGRASGLGEAGMSAWLRAIGLERYEEGLVHNGWDDLEFLSDITEEDLEEAGVQDPAHKRLLLDTLQLSK
The molecule B1 returned an interaction preserved with nilotinib, against active BCR-ABL in experiment [7] above 50%.

B2: SHC1, endogenous (natural protein)
chain: MDLLPPKPKYNPLRNESLSSLEEGASGSTPPEELPSPSASSLGPILPPLPGDDSPTTLCSFFPRMSNLRLANPAGGRPGSKGEPGRAADDGEGIVGAAMPDSGPLPLLQDMNKLSGGGGRRTRVEGGQLGGEEWTRHGSFVNKPTRGWLHPNDKVMGPGVSYLVRYMGCVEVLQSMRALDFNTRTQVTREAISLVCEAVPGAKGATRRRKPCSRPLSSILGRSNLKFAGMPITLTVSTSSLNLMAADCKQIIANHHMQSISFASGGDPDTAEYVAYVAKDPVNQRACHILECPEGLAQDVISTIGQAFELRFKQYLRNPPKLVTPHDRMAGFDGSAWDEEEEEPPDHQYYNDFPGKEPPLGGVVDMRLREGAAPGAARPTAPNAQTPSHLGATLPVGQPVGGDPEVRKQMPPPPPCPGRELFDDPSYVNVQNLDKARQAVGGAGPPNPAINGSAPRDLFDMKPFEDALRVPPPPQSVSMAEQLRGEPWFHGKLSRREAEALLQLNGDFLVRESTTTPGQYVLTGLQSGQPKHLLLVDPEGVVRTKDHRFESVSHLISYHMDNHLPIISAGSELCLQQPVERKL
Take B2: the decrease of the interaction against BCR-ABL in experiment [8] turned out to be 70%.
